{"source": "patent US8673311B2", "about": "(priority 2009, dated 2014)", "test_system": "PY79 spores", "assay_type": "physicochemical, B. subtilis", "data": [{"substance": "listeriolysin from Listeria monocytogenes: immunogen shown to bind to the spore", "values": [{"measurement": "binding of other immunogens to the spore", "value": "can bind to the spore in a pH-dependant manner"}]}]}
